Values of other authors as cited in article PMC6627586.

Target: ceruloplasmin (Homo sapiens) (UniProt P00450)
UniProt P00450, sequence (P00450 20-1065): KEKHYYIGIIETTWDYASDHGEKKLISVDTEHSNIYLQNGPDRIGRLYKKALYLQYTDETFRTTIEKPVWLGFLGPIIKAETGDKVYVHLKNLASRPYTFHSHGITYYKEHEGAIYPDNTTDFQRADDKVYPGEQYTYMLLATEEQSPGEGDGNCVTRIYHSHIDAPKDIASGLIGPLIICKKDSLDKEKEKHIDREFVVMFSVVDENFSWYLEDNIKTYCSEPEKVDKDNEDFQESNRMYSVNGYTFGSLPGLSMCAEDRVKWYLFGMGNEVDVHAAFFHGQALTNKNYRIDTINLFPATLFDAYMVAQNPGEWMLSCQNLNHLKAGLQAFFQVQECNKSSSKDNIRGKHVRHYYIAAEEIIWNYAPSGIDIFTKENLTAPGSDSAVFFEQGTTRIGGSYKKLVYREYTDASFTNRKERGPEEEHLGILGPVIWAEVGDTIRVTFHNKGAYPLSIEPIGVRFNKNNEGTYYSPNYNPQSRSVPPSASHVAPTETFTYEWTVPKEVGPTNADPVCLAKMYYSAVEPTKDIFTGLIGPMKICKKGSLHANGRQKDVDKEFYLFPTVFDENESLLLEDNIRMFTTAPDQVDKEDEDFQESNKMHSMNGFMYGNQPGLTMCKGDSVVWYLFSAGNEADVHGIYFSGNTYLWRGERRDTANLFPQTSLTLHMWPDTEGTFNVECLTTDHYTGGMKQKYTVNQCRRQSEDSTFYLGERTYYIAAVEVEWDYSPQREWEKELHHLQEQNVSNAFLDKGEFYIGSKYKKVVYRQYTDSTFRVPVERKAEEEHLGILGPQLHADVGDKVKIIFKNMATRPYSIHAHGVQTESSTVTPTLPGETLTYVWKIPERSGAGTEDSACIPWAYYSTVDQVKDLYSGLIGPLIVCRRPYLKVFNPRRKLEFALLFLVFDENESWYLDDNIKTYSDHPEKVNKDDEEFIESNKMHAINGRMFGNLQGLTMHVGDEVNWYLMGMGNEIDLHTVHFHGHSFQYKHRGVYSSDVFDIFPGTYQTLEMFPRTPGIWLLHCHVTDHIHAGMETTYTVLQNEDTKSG

Kd: 1500 nM
Substance: CTR1 second extracellular loop fragment (from UniProt O15431)
